This note sets out measurements from US7008922 (RIJKSUNIVERSITEIT TE LEIDEN, dated 2006).

The test concerns the target purified HLA-B7 (human). In words: competition with iodinated … for purified HLA-B7.

SPSVDKARAEL (also called H-Y peptide; peptide 1171) [SMCY peptide SPSVDKARAEL] gave an IC50 of 34 nM.

B1: SMCX peptide SPAVDKAQAEL (peptide)
peptide: SPAVDKAQAEL
notes: Synthetic, HPLC-purified peptide; Differs from the SMCY peptide by A for S at position 3 and Q for R at position 8; also called peptide derived from the X chromosomal homolog SMCX (XE169)
As to B1, the IC50 stood at 140 nM.

In general, IC50 refers to the point on the concentration scale where inhibition reaches its midpoint. Read a high IC50 as lower potency.
